Measured values: patent US20260069676A1 (University of California, published 2026)

Biological target: T1, MHC I (H2Kb) on dendritic cells (;mouse, UniProt P01887 21-119; P01901 22-369)
T1 construct: whole, on cells; also called MHC I molecules of DC2.4 cells
T1 sequence (MHC heavy): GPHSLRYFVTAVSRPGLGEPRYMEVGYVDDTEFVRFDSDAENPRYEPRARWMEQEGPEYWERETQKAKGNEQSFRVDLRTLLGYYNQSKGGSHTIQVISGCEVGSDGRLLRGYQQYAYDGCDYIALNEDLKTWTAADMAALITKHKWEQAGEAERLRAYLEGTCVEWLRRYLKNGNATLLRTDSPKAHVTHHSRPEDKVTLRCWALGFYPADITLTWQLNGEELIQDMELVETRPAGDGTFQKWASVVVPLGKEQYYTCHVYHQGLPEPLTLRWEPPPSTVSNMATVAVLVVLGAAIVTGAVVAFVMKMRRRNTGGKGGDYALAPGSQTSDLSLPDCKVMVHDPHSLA
T1 sequence (b2m): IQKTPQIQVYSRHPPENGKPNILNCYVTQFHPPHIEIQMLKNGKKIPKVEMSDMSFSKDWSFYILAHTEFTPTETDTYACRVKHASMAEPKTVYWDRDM
Test: competition with pre-loaded SIINFEKL on dendritic cells, flow cytometry with SIINFEKL/H2Kb-specific antibody

B1: LTDEMIAQY peptide (MHC I peptide, SARS-CoV-2 spike T cell epitope) (peptide)
peptide: LTDEMIAQY
notes: Synthetic peptide (Anaspec), derived from the SARS-CoV-2 spike protein; also called LTD peptide (MHC I); LTD-MHC I peptide
binding result: binds
